Source: patent US20090298765A1 (Takeda / Millennium, published 2009)
Read-outs that look alike come from different tables or passages of the source. Non-standard residues stand in square brackets, D forms with d. No end group written: not given here. *: point of attachment. Arg(Me) = CNC(=N)NCCC[C@H](N)C(=O)O; Fmoc = O=C(OCC1c2ccccc2-c2ccccc21)*; Lys(Me2) = CN(C)CCCC[C@H](N)C(=O)O; Abu = CC[C@H](N)C(=O)O; azaGly = NNC(=O)O

B1: [D-Tyr1,Ala3,Arg(Me)9]MS10 (peptide)
peptide: [dY]NANSFGL[Arg(Me)]F-NH2
modifications: N-terminus assumed
SMILES: CNC(=N)NCCC[C@H](NC(=O)[C@H](CC(C)C)NC(=O)CNC(=O)[C@H](Cc1ccccc1)NC(=O)[C@H](CO)NC(=O)[C@H](CC(N)=O)NC(=O)[C@H](C)NC(=O)[C@H](CC(N)=O)NC(=O)[C@H](N)Cc1ccc(O)cc1)C(=O)N[C@@H](Cc1ccccc1)C(N)=O
notes: also called Compound No. 169
B2: [D-Tyr1,Ile3,Arg(Me)9]MS10 (peptide)
peptide: [dY]NINSFGL[Arg(Me)]F-NH2
modifications: N-terminus assumed
SMILES: CC[C@H](C)[C@H](NC(=O)[C@H](CC(N)=O)NC(=O)[C@H](N)Cc1ccc(O)cc1)C(=O)N[C@@H](CC(N)=O)C(=O)N[C@@H](CO)C(=O)N[C@@H](Cc1ccccc1)C(=O)NCC(=O)N[C@@H](CC(C)C)C(=O)N[C@@H](CCCNC(=N)NC)C(=O)N[C@@H](Cc1ccccc1)C(N)=O
notes: also called Compound No. 206
B3: [D-Tyr1,Ala5,Arg(Me)9]MS10 (peptide)
peptide: [dY]NWNAFGL[Arg(Me)]F-NH2
modifications: N-terminus assumed
SMILES: CNC(=N)NCCC[C@H](NC(=O)[C@H](CC(C)C)NC(=O)CNC(=O)[C@H](Cc1ccccc1)NC(=O)[C@H](C)NC(=O)[C@H](CC(N)=O)NC(=O)[C@H](Cc1c[nH]c2ccccc12)NC(=O)[C@H](CC(N)=O)NC(=O)[C@H](N)Cc1ccc(O)cc1)C(=O)N[C@@H](Cc1ccccc1)C(N)=O
B4: [D-Tyr1,Ala4,Arg(Me)9]MS10 (peptide)
peptide: [dY]NWASFGL[Arg(Me)]F-NH2
modifications: N-terminus assumed
SMILES: CNC(=N)NCCC[C@H](NC(=O)[C@H](CC(C)C)NC(=O)CNC(=O)[C@H](Cc1ccccc1)NC(=O)[C@H](CO)NC(=O)[C@H](C)NC(=O)[C@H](Cc1c[nH]c2ccccc12)NC(=O)[C@H](CC(N)=O)NC(=O)[C@H](N)Cc1ccc(O)cc1)C(=O)N[C@@H](Cc1ccccc1)C(N)=O
notes: also called Compound No. 210
B5: [D-Tyr1,Thr5,Arg(Me)9]MS10 (peptide)
peptide: [dY]NWNTFGL[Arg(Me)]F-NH2
modifications: N-terminus assumed
SMILES: CNC(=N)NCCC[C@H](NC(=O)[C@H](CC(C)C)NC(=O)CNC(=O)[C@H](Cc1ccccc1)NC(=O)[C@@H](NC(=O)[C@H](CC(N)=O)NC(=O)[C@H](Cc1c[nH]c2ccccc12)NC(=O)[C@H](CC(N)=O)NC(=O)[C@H](N)Cc1ccc(O)cc1)[C@@H](C)O)C(=O)N[C@@H](Cc1ccccc1)C(N)=O
notes: also called Compound No. 211
B6: [D-Tyr1,Arg(Me)9,Trp10]MS10 (peptide)
peptide: [dY]NWNSFGL[Arg(Me)]W-NH2
modifications: N-terminus assumed
SMILES: CNC(=N)NCCC[C@H](NC(=O)[C@H](CC(C)C)NC(=O)CNC(=O)[C@H](Cc1ccccc1)NC(=O)[C@H](CO)NC(=O)[C@H](CC(N)=O)NC(=O)[C@H](Cc1c[nH]c2ccccc12)NC(=O)[C@H](CC(N)=O)NC(=O)[C@H](N)Cc1ccc(O)cc1)C(=O)N[C@@H](Cc1c[nH]c2ccccc12)C(N)=O
notes: also called Compound No. 174
B7: Metastin (peptide)
peptide: GTSLSPPPESSGSRQQPGLSAPHSRQIPAPQGAVLVQREKDLPNYNWNSFGLRF
B8: [Abu8]MS10 (peptide)
peptide: YNWNSFG[Abu]RF-NH2
modifications: N-terminus assumed
SMILES: CC[C@H](NC(=O)CNC(=O)[C@H](Cc1ccccc1)NC(=O)[C@H](CO)NC(=O)[C@H](CC(N)=O)NC(=O)[C@H](Cc1c[nH]c2ccccc12)NC(=O)[C@H](CC(N)=O)NC(=O)[C@@H](N)Cc1ccc(O)cc1)C(=O)N[C@@H](CCCNC(=N)N)C(=O)N[C@@H](Cc1ccccc1)C(N)=O
notes: also called Compound No. 187
B9: [D-Tyr1,Ala7,Arg(Me)9]MS10 (Compound No. 173) (peptide)
peptide: [dY]NWNSFAL[Arg(Me)]F-NH2
modifications: N-terminus assumed
SMILES: CNC(=N)NCCC[C@H](NC(=O)[C@H](CC(C)C)NC(=O)[C@H](C)NC(=O)[C@H](Cc1ccccc1)NC(=O)[C@H](CO)NC(=O)[C@H](CC(N)=O)NC(=O)[C@H](Cc1c[nH]c2ccccc12)NC(=O)[C@H](CC(N)=O)NC(=O)[C@H](N)Cc1ccc(O)cc1)C(=O)N[C@@H](Cc1ccccc1)C(N)=O
B10: des(1)-[D-Tyr2,D-Trp3,AzaGly7,Arg(Me)9]MS10 (peptide)
peptide: [dY][dW]NSF[azaGly]L[Arg(Me)]F-NH2
modifications: N-terminus assumed
SMILES: CNC(=N)NCCC[C@H](NC(=O)[C@H](CC(C)C)NC(=O)NNC(=O)[C@H](Cc1ccccc1)NC(=O)[C@H](CO)NC(=O)[C@H](CC(N)=O)NC(=O)[C@@H](Cc1c[nH]c2ccccc12)NC(=O)[C@H](N)Cc1ccc(O)cc1)C(=O)N[C@@H](Cc1ccccc1)C(N)=O
notes: also called Compound No. 242
B11: des(1)-[D-Tyr2,Arg(Me)9]MS10 (peptide)
peptide: [dY]WNSFGL[Arg(Me)]F-NH2
modifications: N-terminus assumed
SMILES: CNC(=N)NCCC[C@H](NC(=O)[C@H](CC(C)C)NC(=O)CNC(=O)[C@H](Cc1ccccc1)NC(=O)[C@H](CO)NC(=O)[C@H](CC(N)=O)NC(=O)[C@H](Cc1c[nH]c2ccccc12)NC(=O)[C@H](N)Cc1ccc(O)cc1)C(=O)N[C@@H](Cc1ccccc1)C(N)=O
notes: also called Compound No. 217
B12: des(1)-[D-Tyr2,AzaGly7,Arg(Me)9]MS10 (peptide)
peptide: [dY]WNSF[azaGly]L[Arg(Me)]F-NH2
modifications: N-terminus assumed
SMILES: CNC(=N)NCCC[C@H](NC(=O)[C@H](CC(C)C)NC(=O)NNC(=O)[C@H](Cc1ccccc1)NC(=O)[C@H](CO)NC(=O)[C@H](CC(N)=O)NC(=O)[C@H](Cc1c[nH]c2ccccc12)NC(=O)[C@H](N)Cc1ccc(O)cc1)C(=O)N[C@@H](Cc1ccccc1)C(N)=O
notes: also called Compound No. 222

Tests used:
[1] = molecular target: T1, human OT7T175 (metastin receptor) (human, UniProt Q969F8 1-398); assay: cell-based or functional assay
T1 sequence (Q969F8 whole entry L364H): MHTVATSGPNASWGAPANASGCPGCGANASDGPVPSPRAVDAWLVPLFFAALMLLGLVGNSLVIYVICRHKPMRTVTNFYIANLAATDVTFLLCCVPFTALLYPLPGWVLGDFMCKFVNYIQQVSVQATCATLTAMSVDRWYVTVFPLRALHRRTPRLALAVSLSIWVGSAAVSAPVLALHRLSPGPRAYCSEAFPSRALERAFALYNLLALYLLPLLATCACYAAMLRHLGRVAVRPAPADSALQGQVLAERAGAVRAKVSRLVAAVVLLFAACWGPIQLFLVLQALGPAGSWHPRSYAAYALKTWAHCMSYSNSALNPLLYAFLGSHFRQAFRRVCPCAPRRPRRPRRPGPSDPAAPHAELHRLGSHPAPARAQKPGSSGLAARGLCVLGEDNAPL

[2] = molecular target: T1, human OT7T175 (metastin receptor); assay: competition with Cy-5 metastin (40-54) on hOT7T175-CHO cells, FMAT
[3] = molecular target: T1, human OT7T175 (metastin receptor); assay: cell-based or functional assay; remark: listed apart in the source
[4] = molecular target: T1, human OT7T175 (metastin receptor); assay: cell-based or functional assay; remark: listed apart in the source

Row | Binder | Ca ion level-increasing activity (FLIPR) [1] | IC50 [2] [nM] | Ca ion level-increasing activity (FLIPR, 40 s) [3] [EC50/MS10 EC50] | Ca ion level-increasing activity (FLIPR) [4]
1 | YKWNSFGLRF-NH2 [[Lys2]MS10] | 1 x Metastin (1-54) |  |  | 
2 | YNWNSFGLRX (Hph10; C-terminal amide) [[Hph10]MS10] | 1 x Metastin (1-54) |  |  | 
3 | KNWNSFGLRF-NH2 [[Lys1]MS10] | 1 x Metastin (1-54) |  |  | 
4 | YNWNSFALRF-NH2 (also called Compound No. 50) [[Ala7]MS10] | 30 x Metastin (1-54) | 190 |  | 
5 | B1 | 2 x Metastin (1-54) | 160 |  | 
6 | B2 |  | 85 | 4.8 | 10 x Metastin (1-54)
7 | B3 |  | 36 | 1.1 | 10 x Metastin (1-54)
8 | B4 |  | 730 | 9.3 | 1 x Metastin (1-54)
9 | DNWNSFGLRF-NH2 (also called Compound No. 75) [[Asp1]MS10] | 1 x Metastin (1-54) | 880 |  | 
10 | B5 |  | 44 | 1.3 | 10 x Metastin (1-54)
11 | [dY]NWTSFGL[Arg(Me)]F-NH2 (also called Compound No. 208) [[D-Tyr1,Thr4,Arg(Me)9]MS10] |  | 830 | 7.3 | 1 x Metastin (1-54)
12 | B6 |  | 420 | 2.3 | 10 x Metastin (1-54)
13 | YNWNSFGL[Lys(Me2)]F-NH2 [[Lys(Me2)9]MS10] | 0.5 x Metastin (1-54) |  |  | 
14 | B7 | 1 x Metastin (1-54) |  |  | 
15 | YNWNSXGLRF (D-Tyr1; Cha6; Arg(Me)9; C-terminal amide) [[D-Tyr1,Cha6,Arg(Me)9]MS10 (Compound No. 172)] | 1 x Metastin (1-54) |  |  | 
16 | B8 |  | 720 | 1.9 | 1 x Metastin (1-54)
17 | [dY]NWNSF[azaGly]L[Arg(Me)]F-NH2 (also called Compound No. 232) [[D-Tyr1,AzaGly7,Arg(Me)9]MS10] |  | 49 | 3.9 | 3 x Metastin (1-54)
18 | YNWNSFGARF-NH2 [[Ala8]MS10] | 1 x Metastin (1-54) |  |  | 
19 | Fmoc-NSFGL[Arg(Me)]F-NH2 [des(1-3)-Fmoc-[Arg(Me)9]MS10] | 1 x Metastin (1-54) |  |  | 
20 | B9 | 1 x Metastin (1-54) |  |  | 
21 | Fmoc-NWNSFGLRF-NH2 [des(1)-Fmoc-MS10] | 5 x Metastin (1-54) |  |  | 
22 | B10 |  | 70 | 1.4 | 2 x Metastin (1-54)
23 | B11 |  | 250 | 3.1 | 20 x Metastin (1-54)
24 | [dY]TNSF[azaGly]L[Arg(Me)]F-NH2 (also called Compound No. 241) [des(1)-[D-Tyr2,Thr3,AzaGly7,Arg(Me)9]MS10] |  | 56 | 5.3 | 1 x Metastin (1-54)
25 | SNWNSFGLRF-NH2 [[Ser1]MS10] | 1 x Metastin (1-54) |  |  | 
26 | B12 |  | 33 | 2.7 | 10 x Metastin (1-54)
27 | Fmoc-NSFGLRF-NH2 [des(1-3)-Fmoc-MS10] | 1 x Metastin (1-54) |  |  | 
